Among the data in article PMC9410543 are response (Log2 normalized LU) values, retold here.

First the molecules themselves.
B1: unnamed (parent)
chain 1: VGDDSGGFSTTVSTEQNVPDPQVGITTMKDLKGKANRGKMDVSGVQAPVGAITTIEDPVLAKKVPETFPELKPGESRHTSDHMSIYKFMGRSHFLCTFTFNSNNKEYTFPITLSSTSNPPHGLPSTLRWFFNLFQLYRGPLDLTIIITGATDVDGMAWFTPVGLAVDTPWVEKESALSIDYKTALGAVRFNTRRTGNIQIRLPWYSYLYAVSGALDGLGDKTDSTFGLVSIQIANYNHSDEYLSFSCYLSVTEQSEFYFPRAPLNSNAMLSTESMMSRIAAGDLESSVDDPRSEEDKRFESHIECRKPYKELRLEVGKQRLKYAQEELSNEVLPPPRKMKGLFSQ
chain 2: MATFISVQLKKTSEVDLAKPLVKFIQQTYPSGGEEQAQYCRAAEELSKLRRAAVGRPLDKHEGALETLLRYYDQICSIEPKFPFSENQICLTFTWKDAFDKGSLFGGSVKLALASLGYEKSCVLFNCAALASQIAAEQNLDNDEGLKIAAKHYQFASGAFLHIKETVLSALSREPTVDISPDTVGTLSLIMLAQAQEVFFLKATRDKMKDAIIAKLANQAADYFGDAFKQCQYKDTLPKEVFPVLAAKHCIMQANAEYHQSILAKQQKKFGEEIARLQHAAELIKTVASRYDEYVNVKDFSDKINRALAAAKKDNDFIYHDRVPDLKDLDPIGKATLVKSTPVNVPISQKFTDLFEKMVPVSVQQSLAAYNQRKADLVNRSIAQMREATTLANGVLASLNLPAAIEDVSGDTVPQSILTKSRSVIEQGGIQTVDQLIKELPELLQRNREILDESLRLLDEEEATDNDLRAKFKERWQRTPSNELYKPLRAEGTNFRTVLDKAVQADGQVKECYQSHRDTIVLLCKPEPELNAAIPSANPAKTMQGSEVVNVLKSLLSNLDEVKKEREGLENDLKSVNFDMTSKFLTALAQDGVINEEALSVTELDRVYGGLTTKVQESLKKQEGLLKNIQVSHQEFSKMKQSNNEANLREEVLKNLATAYDNFVELVANLKEGTKFYNELTEILVRFQNKCSDIVFARKTERDELLKDLQQSIAREPSAPSIPTPAYQSSPAGGHAPTPPTPAPRTMPPTKPQPPARPPPPVLPANRAPSATAPSPVGAGTAAPAPSQTPGSAPPPQAQGPPYPTYPGYPGYCQMPMPMGYNPYAYGQYNMPYPPVYHQSPGQAPYPGPQQPSYPFPQPPQQSYYPQQ
B2: unnamed (parent)
chain 1: B1 chain 1
chain 2: not shown
B3: unnamed (parent)
chain 1: B1 chain 1
chain 2: MAVSESQLKKMVSKYKYRDLTVRETVNVITLYKDLKPVLDSYVFNDGSSRELMNLTGTIPVPYRGNTYNIPICLWLLDTYPYNPPICFVKPTSSMTIKTGKHVDANGKIYLPYLHEWKHPQSDLLGLIQVMIVVFGDEPPVFSRPISASYPPYQATGPPNTSYMPGMPGGISPYPSGYPPNPSGYPGCPYPPGGPYPATTSSQYPSQPPVTTVGPSRDGTISEDTIRASLISAVSDKLRWRMKEEMDRAQAELNALKRTEEDLKKGHQKLEEMVTRLDQEVAEVDKNIELLKKKDEELSSALEKMENQSENNDIDEVIIPTAPLYKQILNLYAEENAIEDTIFYLGEALRRGVIDLDVFLKHVRLLSRKQFQLRALMQKARKTAGLSDLY

One experiment covers variants of B1. As to the kind of experiment: protein-fragment complementation assay (split Gaussia luciferase, GLuc2 bait / GLuc1 prey). Conditions: with partner chain of the complex shown;; read off a plot.
In the case of chain 1 Y309A K310A E311A L312A, the response (Log2 normalized LU) worked out at 4.7.

Another experiment covers variants of B2. The description is as above. Conditions: with partner chain of the complex shown;; read off a plot.
Take chain 1 Y309A K310A E311A L312A: the response (Log2 normalized LU) is 3.

Variants of B3 are the subject of a further experiment. The experiment is described as above. Conditions: with partner chain of the complex shown;; read off a plot.
Consider chain 1 Y309A K310A E311A L312A, for which the response (Log2 normalized LU) was determined as 4.4.
